The results in this text go back to US20260258115A1 (MAPP BIOPHARMACEUTICAL, published 2026).

Holding throughout (test): BLI, IgG
In assay [1] the target is RSV prefusion F (preF), subtype B (respiratory syncytial virus, subtype B).
Assay [2] deals with RSV prefusion F (preF), subtype A (respiratory syncytial virus, subtype A, UniProt P03420 26-513).
For assay [3], the target named is T1, RSV postfusion F (postF), subtype A (respiratory syncytial virus, subtype A, UniProt P03420 26-513).
T1 construct: also called F ΔFP; Postfusion subtype A

B1: ADI-14426 (antibody, V domains shown)
VH: EVQLVESGGGVVQPGRSLRLSCAASGFTFSSFPMHWVRQAPGKGLEWVAVASYDGRNNYYAGSVKGRFTISRDNSKNTLYLQINSLRAEDTAVYYCAREVVIAAHFDYWGQGTLVTVSS
VL: SSELTQEPAVSVALGQTVRITCQGDSLRSFYANWYQQKPGQAPILVIYGKNDRPSGIPDRFSGSNSGNTASLTITGAQAEDEADYYCNSRDSSGNHRVFGGGTKVTVL
notes: also called Ab 92
For B1, the Kd was found to be 19.2 nM in assay [1], 23.8 nM in assay [2] and 0.396 nM in assay [3].

B2: ADI-14422 (antibody, V domains shown)
VH: QVQLVQSGAEVKKPGSSVKVSCKASGGTFSSYTINWVRQAPGQGLEWMGRIIPILGIANYAQKFQGRVTITADKSTSTAYMELSSLRSEDTAVYYCARRHQDTYGMDVWGQGTTVTVSS
VL: QSVLTQPPSVSGAPGQRVTISCTGSSSNIGAGYDVHWYQQLPGTAPKLLIYGNSNRPSGVPDRFSGSKSGTSASLAITGLQAEDEADYYCQSYDSSLSGSVFGGGTKVTVL
notes: also called Ab 88
Regarding B2, the results for the Kd in assay [1], in assay [2] and in assay [3] were 33.9 nM, 11.4 nM and 4.76 nM, respectively.

B3: ADI-14600 (antibody, V domains shown)
VH: QVQLVQSGGGLVKPGGSLRLSCAASGFSFSDYYMNWIRQAPGKGLEWVSYISSSSSYTNYADSVKGRFTISRDNAKKSLYLQMNSLRAEDTAVYYCASQTYSDYARGGAFDIWGQGTTVTVSS
VL: QSVLTQPPSVSGAPGQRVTISCTGSSSNIGAGYDVHWYQQLPGTAPKLLIYGNNNRPSGVPDRFSGSKSGTSASLAITGLQAEDEADYYCQSYDSSLSGSVFGTGTKVTVL
Consider B3, for which the results for the Kd in assay [1] and in assay [2] were 0.986 nM and 0.758 nM, respectively. The binding result in assay [3] is “no binding”.

B4: ADI-20971 (antibody, V domains shown)
VH: EVQLVESGGGLVKPGESLRLSCAASGFTFSDYSMTWIRQAPGKGLLEWIAYINSQSNYMDYADSVKGRFTISRDNAKNSLYLQMNGLRADDTAVYFCARDRRTFVAATLGWFDPWGQGTLVTVSS
VL: ETTLTQSPATLSVSPGERATLSCRASQSVSNNVAWYQQKPGQAPRVLIYAASTRATGIPARFSGSESGTEFTLTISSLQSEDFAVYYCQQYNNWPRTFGQGTKLEIK
On to B4, for which the Kd in assay [1] worked out at 0.544 nM; in assay [2] it was 0.333 nM. In assay [3], the binding result is given as “no binding”.

B5: ADI-14423 (antibody, V domains shown)
VH: EVQLVESGGVVIQPGGSLRLSCAASGFNFDDYSMHWVRQAPGKGLEWVSLISWDGGITYYADSVKGRFTISRDNGKKSLYLQMNSLRTEDTALYYCAKDIDIYSDYAGYFDYWGQGTLVTVSS
VL: DIRMTQSPSSLSASVGDRVTITCRASQGIRNDLGWYQQKPGKAPKRLIYAASSLQSGVPSRFSGSGSGTEFTLTISSLQPEDFATYYCLQHNSYPFTFGQGTRLEIK
notes: also called Ab 89
Take B5: the Kd amounted to 3.4 nM in assay [1] and 9.65 nM in assay [2]. Further, the binding result in assay [3] is given as “no binding”.

B6: ADI-14602 (antibody, V domains shown)
VH: EVQLVESGGGVVQPGGSLRLSCAASGFSFSSCGMHWVRQVSGKGLEWVAFIRYDGSNKFYADSVKGRFTISRDNSKNTLYLQMNSLRVEDTAVYYCAKGGLEDVSTGYSPHYYYGMDVWGQGTTVTVSS
VL: QPVLTQPPSVSVSPGQTASITCSGDKLAYKYTCWYQQKPGQSPVLVIFQDSKRPSGIPERFSGSNSGNTATLTISGTQALDEADYYCQAWDSSTVVFGGGTKLTVL
notes: also called Ab 130
Consider B6, for which the Kd in assay [1] turned out to be 8.94 nM; in assay [2], 4.73 nM. The binding result in assay [3] was “no binding”.

B7: ADI-14604 (antibody, V domains shown)
VH: EVQLLESGGGLVQPGGSLRLSCSASGFTFNNYVMHWVRQAPGKGLEDASAISSNGVSTNYADSVKGRFTISRDNSKNTLYLQMRSLRAEDTALYYCVRDLIPHDSSAYYGYHGMDVWGQGTTVTVSS
VL: QPVLTQPPSASGTPGQSVTISCSGSSSNIGTNVVNWYQQLPGTAPKLLIYSNDLRPSGVPDRFSGSKSGTSASLAISGLQSEDEANYYCAAWDDSLNGVLFGGGTKLTVL
For the molecule B7, the Kd is 1.53 nM in assay [1] and 2.44 nM in assay [2]. In addition, the binding result in assay [3] is recorded as “no binding”.

B8: ADI-20970 (antibody, V domains shown)
VH: EVQLLESGGGLVKPGGSLRLSCAVSGFSFSNAWMSWVRQAPGKGLEWVGRIRSKTDGGTTDYAAPVKGRFTISRDDSKNTLYLQMNSLKTEDTAVYYCTTAPRYSTSWYPGYYYYYYMDVWGKGTTVTVSS
VL: DIQMTQSPSSLSASVGDRVTITCQASQDINFYLNWYQQKPGKAPKLLIYDASNLETGVPSRFSGSVSGTDFTFTISSLQPEDFATYYCQQYDDLPAFGGGTKVEIK
B8: the Kd in assay [1] is 2.55 nM; in assay [2], 1.83 nM. The binding result in assay [3] is “no binding”.

B9: ADI-14578 (antibody, V domains shown)
VH: QVQLVQSGAEVKKPGSSVKVSCKASGGTFNNYAINWVRQAPGQGLEWMGGIIPMFGTANYAQKFQGRVTMTADESTSTAYMELSSLRSEDTAVYYCASSQIFVGGNYYKLEFDNWGQGTLVTVSS
VL: QSVLTQPPSVSAAPGQKVTISCSGSNSNIGYNDVSWYQQLPGTAPQLLIYDNNKRTSGIPDRFSGSKFGTSATLGITGLQTGDEADYYCGTWDSSLSTVIFGGGTKLTVL
In the case of B9, the Kd amounted to 4.02 nM in assay [1] and 3.29 nM in assay [2]. The binding result in assay [3] is listed as “no binding”.

B10: ADI-20961 (antibody, V domains shown)
VH: QVQLVESGGGLVKPGGSLRLSCAASGFKFSSYYMHWVRQAPGKGLEWVSSVSGGSTYTSYADSVKGRFTISRDNAKHSLFLQLNSLRAEDTAVYHCVRGDYHPSGTSLNWFDPWGQGTLVTVSS
VL: QPGLTQPPSVSGAPGQRVTISCTGSSSNIGAGYDVHWYKQLPGTVPKLLIYANNNRPSGVPDRFSGSESGTSASLAITGLQAEDEADYYCQSYDSSLNAYVFGTGTKVTVL
For B10, the equilibrium dissociation constant (Kd) turned out to be 0.504 nM in assay [1] and 0.374 nM in assay [2]. Moreover, in assay [3], the binding result is on record as “no binding”.

B11: ADI-14577 (antibody, V domains shown)
VH: QVQLVQSGAEVKKPGASVKVSCKASGYTFTNYGITWVRQAPGQGLEWMGWISAYNGVRNYAQKLQGRVTMTIDTSRTTAYMELKNLRSDDTAMYYCARGPPVIAADDFQHWGQGTMVTVSS
VL: DIQMTQSPLSLPVTLGQPASISCRSSQSLVHSNGDTYLNWFQQRPGRSPRRLIYKVSNRDSGVPDRFSGSGSGTDFTLKISRVEAEDVGVYYCMQGTHWPPDFGQGTRLEIK
Regarding B11, the values for the Kd in assay [1] and in assay [2] were 2.19 nM and 0.439 nM, respectively. The binding result in assay [3] is “no binding”.

B12: ADI-20959 (antibody, V domains shown)
VH: EVQLLESGAEVKKPGASVKVSCKTSGYTFSNYGVSWVRQAPGQGLEWLGWISAYNGNTNYAQKLQGRVTMTTDSSTSTAYMEVRSLRSDDTAVYYCARDVAPVAASLFDYWGQGTLVTVSS
VL: DIRLTQSPLSLPVTLGQPASISCRSSQSLEFTDGNTYLSWFQQRPGQSPRRLIYKVSNRDSGVPDRFSGSGSGTDFTLKINRVEAEDVGVYYCMQGIHWPPTFGPGTKVEIK
For B12, the results for the Kd in assay [1] and in assay [2] were 0.43 nM and 0.337 nM, respectively. In addition, the binding result in assay [3] was “no binding”.

B13: ADI-14597 (antibody, V domains shown)
VH: EVQLVESGGVVVQPGGSLRLSCAVSGFNFDDYSMHWVRQLPGKGLEWVSLISWDGGITYYADSVKGRFTISRDNSKNSLYLQMNSLRTEDTALYYCAKDGNRYSDNDYYFDYWGQGTLVTVSS
VL: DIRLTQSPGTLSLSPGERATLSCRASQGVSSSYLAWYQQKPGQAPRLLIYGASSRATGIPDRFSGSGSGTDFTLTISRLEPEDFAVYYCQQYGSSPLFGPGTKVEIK
Take B13: the Kd is 1.67 nM in assay [1] and 5.26 nM in assay [2]. Besides, the binding result in assay [3] was “no binding”.

B14: ADI-20969 (antibody, V domains shown)
VH: EVQLVESGGGLVKPGGSLRLSCAASGFKFSSYTMNWVRQAPGKGLEWVSSVSASSSYIFYADSVQGRFIISRDNAQNSLYLQMNSLRADDTAVYYCARDQYGPGHYYNPAWFDPWGQGTLVTVSS
VL: QPVLTQPPSVSGAPGQRVTISCTGTSSNIGAGYDVHWYKQLPGTAPKVLIYGNTNRPSGIPDRFSGSKSGTSASLAITGLKAEDEADYYCQSYDRSGSKVFGTGTKLTVL
As for B14, the Kd in assay [1] came out at 0.409 nM; in assay [2], 0.301 nM. In addition, in assay [3], the binding result is given as “no binding”.

B15: ADI-21032 (antibody, V domains shown)
VH: EVQLVESGGGLVKPGGSLRLSCAVSGFKFSSYTMNWVRQAPGKGLEWVSSVSASSSYIFYADSVQGRFIISRDNAQNSLYLQMNSLRADDTAVYYCTRDQYGPGHYYNPAWFDPWGQGTLVTVSS
VL: QPVLTQPPSASGAPGQRVTISCTGSSSNIGAGYDVHWYQQLPGTAPKVLIYGNTNRPSGIPDRFSGSKSGTSASLAIIGLQAEDEADYYCQSYDRNGSKVFGTGTKLTVL
notes: also called Ab 280
In the case of B15, the Kd amounted to 0.344 nM in assay [1] and 0.296 nM in assay [2]. Further, in assay [3], the binding result was “no binding”.

B16: ADI-20962 (antibody, V domains shown)
VH: QVQLVQSGAEVKKPGASVKVSCKASGYTFSHYGLSWVRQAPGQGLEWMGWISAYNHNTNYAQKFQGRVTITTDTSTSTAYLEMRSLRSDDTAVYYCAREPPSDTAAGTGDYWGQGTLVTVSS
VL: DIVMTQSPLSLSVTLGQPASISCRSSQSLVYSDGNTYLTWFQQRPGQSPRRLIYKVSNRDSGVPDRFSGSGSGTDFTLKISRVEAEDVGVYYCMQGTQWPRTFGQGTKVDIK
In the case of B16, the Kd came to 0.463 nM in assay [1] and 0.289 nM in assay [2]. Further, the binding result in assay [3] is reported as “no binding”.

B17: ADI-14427 (antibody, V domains shown)
VH: QVQLVQSGAEVKKPGSSVKVSCKASGGTFNSYTINWVRQAPGQGLEWMGRIITIPGATNYAQKFQGRVTFTADKSTSTAYMELSSLRSEDTAVYFCAKRGTGYYGMDVWGQGTTVTVSS
VL: QSVLIQPRSVSGSPGQSVTISCTGTSSDVGGYNYVSWYQQHPGKAPKLMIYDVSERPSGVPDRFSGSKSGNTASLTISGLQAEDEADYYCCSFVGIYILVFGGGTKLTVL
notes: also called Ab 93
For the molecule B17, the Kd in assay [1] stood at 10.8 nM; in assay [2], 0.234 nM; in assay [3], 3.33 nM.

B18: ADI-20964 (antibody, V domains shown)
VH: QVQLVQSGAEVKKPGASVKVSCKASGYTFTHYGISWVRQAPGQGLEWMGWISAYNGNTNYAQKLQGRVTMTTDTSTSTAYMEVRSLRYDDTAVYYCARDVPVEAATSPEFWGQGTLVTVSS
VL: DIVMTQTPLSLPVTLGQPASISCRSSQSLVYSDGNTYLSWFQQRPGQSPRRLIYKVSNRDSGVPNRFSGSGSGTDFTLKISRVEAEDVGVYYCVQNTHWPAYTFGQGTKVEIK
Consider B18, for which the results for the Kd in assay [1] and in assay [2] were 2.49 nM and 0.36 nM, respectively. Moreover, the binding result in assay [3] is listed as “no binding”.
